Assays:
[1] = tested on: MmsR (LysR-type transcriptional regulator) (Pseudomonas denitrificans); test: cell_activity; details: GFP reporter; 25 mM 3-HP; 2.6 to 90.2 x10^3 AU/OD
[2] = tested on: HpdR (LysR-type transcriptional regulator, 304 aa) (Pseudomonas denitrificans); test: cell_activity; details: hpdH mRNA by 3-HP in wild type; 1.20 in hpdR deletion; 60.5 on complementation
[3] = tested on: MmsR (LysR-type transcriptional regulator) (Pseudomonas denitrificans); test: EMSA; details: per monomeric MmsR

| Sequence | Kd ([3]; no 3-HP) | Kd ([3]; with 3-HP (25 mM)) | also measured |
| --- | --- | --- | --- |
| CCTCGAATGTGCAAAAACGCAGACCATACTTGCACATCACCGCATTGAGTACATCAAAAATGCACTGTTAGGATCGATCCAGACAACAAAAAAGCCACAGGCTGGGAGAATCCCG (double strand) [BS_wt (PmmsA reporter)] | – | – | activity (fold induction) [1]: 34.6 |
| TGTGGGAGCGGGCGTGCCCGCGAAGAGGCCAGCACAGACTTACCACTGTGCTAAAACGCACAGCGGCTGCGCGAAATCTCGTGTTTCCTCCACGAAATTACTCACTAAGATGGATCGGGACAAGAATAATAATCAGGCCCGAGGTTGCAC (double strand) [PhpdH (PC3) promoter] | – | – | activity (fold induction) [2]: 43 |
| GTCAGCCTCAGCGCACCTCGAATGTGCAAAAACGCAGACCACTTGCACATCACCGCATTGAGTACATCAAAAATCACTGTTAGGATCGATCCAGACAACAAAAAAGCCACAGGCTGGGAGAATCCCG (double strand) [F12 (PmmsA, intact O1 and O2)] | – | – | Kd ([3]; no 3-HP, 0.4 nM DNA): 10.7 nM; Kd ([3]; with 3-HP (25 mM), 0.4 nM DNA): 5.4 nM |
| GTCAGCCTCAGCGCACCTCGAATGTGCAAAAACGCAGACCATACTTGCACATCACCGCATTGAGTACATCAATCCTTGCTTGTTAGGATCGCGCCCAGGCACAAAAAAGCCACAGGCTGGGAGAATCCCG (double strand) [F12M (O2 mutated)] | 18.6 nM | 19.8 nM | – |
| GTCAGCCTCAGCGCACCTCGATCCTTGCTAAACGCAGACCATACCGCCCAGGCACCGCATTGAGTACATCAAAAATGCACTGTTAGGATCGATCCAGACAACAAAAAAGCCACAGGCTGGGAGAATCCCG (double strand) [F1M2 (O1 mutated)] | 79.8 nM | 316 nM | – |

Source: US20200354728
